Like-named read-outs stand apart in the source and are kept apart here. Starred links: 1 amine or outer side, 2 acyl side, 3 side chain; linkers in the order of their positions; H or OH if unused. Non-standard residues stand in square brackets, D forms with d. Groups on a side chain read outwards from the residue. No end group written: not given here. *: point of attachment. C20 diacid = O=C(O)CCCCCCCCCCCCCCCCCCC(=O)*; C18 diacid = O=C(O)CCCCCCCCCCCCCCCCC(=O)*; γGlu = O=C(O)[C@H](CCC(=O)[*:2])N[*:1]; εLys = N[C@@H](CCCCN[*:1])C(=O)[*:2]; AEEA = NCCOCCOCC(=O)O; Aib = CC(C)(N)C(=O)O
T1: hNPY2R (Homo sapiens, UniProt P49146)
T1 construct: expressed in transfected cells; host or cells: HEK-293 cells carrying a CRE-luciferase reporter gene
T1 sequence (P49146 1-381): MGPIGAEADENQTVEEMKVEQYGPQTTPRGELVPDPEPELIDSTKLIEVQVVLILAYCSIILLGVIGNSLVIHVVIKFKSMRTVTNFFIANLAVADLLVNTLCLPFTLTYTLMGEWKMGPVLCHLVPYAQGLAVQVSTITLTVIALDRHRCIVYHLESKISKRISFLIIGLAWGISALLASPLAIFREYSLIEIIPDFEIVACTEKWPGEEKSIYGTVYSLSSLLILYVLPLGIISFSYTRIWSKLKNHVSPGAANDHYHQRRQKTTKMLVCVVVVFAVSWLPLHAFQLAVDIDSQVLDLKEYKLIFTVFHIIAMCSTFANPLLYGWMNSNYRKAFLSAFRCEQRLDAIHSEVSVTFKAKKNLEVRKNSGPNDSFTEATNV

T2: hGIPR (Homo sapiens, UniProt P48546)
T2 construct: expressed in transfected cells; host or cells: CHO cells carrying a CRE-luciferase reporter gene
T2 sequence (P48546 22-466): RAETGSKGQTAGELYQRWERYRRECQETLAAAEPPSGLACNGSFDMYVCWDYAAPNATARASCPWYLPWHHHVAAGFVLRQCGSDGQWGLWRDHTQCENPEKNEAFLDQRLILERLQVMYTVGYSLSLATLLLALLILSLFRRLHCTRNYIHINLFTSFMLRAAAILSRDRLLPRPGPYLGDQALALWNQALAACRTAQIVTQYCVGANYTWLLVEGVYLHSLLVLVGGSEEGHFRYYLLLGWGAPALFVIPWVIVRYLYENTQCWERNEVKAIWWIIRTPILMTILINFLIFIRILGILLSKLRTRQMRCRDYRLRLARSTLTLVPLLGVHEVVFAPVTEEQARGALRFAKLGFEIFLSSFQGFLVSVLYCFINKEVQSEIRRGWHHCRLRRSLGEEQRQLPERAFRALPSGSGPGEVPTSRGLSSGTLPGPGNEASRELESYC

T3: human GIP receptor (human, UniProt P48546 22-466)
T3 sequence (looked up): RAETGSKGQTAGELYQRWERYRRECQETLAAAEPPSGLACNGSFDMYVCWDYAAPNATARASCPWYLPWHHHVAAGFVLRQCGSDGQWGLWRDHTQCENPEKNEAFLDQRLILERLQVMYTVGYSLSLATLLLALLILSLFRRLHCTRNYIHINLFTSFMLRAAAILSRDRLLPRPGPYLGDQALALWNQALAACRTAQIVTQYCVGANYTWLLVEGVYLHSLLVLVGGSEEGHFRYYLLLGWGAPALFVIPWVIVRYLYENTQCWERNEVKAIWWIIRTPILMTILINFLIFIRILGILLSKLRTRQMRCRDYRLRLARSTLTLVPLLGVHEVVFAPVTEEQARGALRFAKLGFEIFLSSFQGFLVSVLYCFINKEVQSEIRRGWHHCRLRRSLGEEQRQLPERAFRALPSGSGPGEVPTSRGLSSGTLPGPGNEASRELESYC

T4: human neuropeptide Y2 receptor (human, UniProt P49146 1-381)
T4 sequence (looked up): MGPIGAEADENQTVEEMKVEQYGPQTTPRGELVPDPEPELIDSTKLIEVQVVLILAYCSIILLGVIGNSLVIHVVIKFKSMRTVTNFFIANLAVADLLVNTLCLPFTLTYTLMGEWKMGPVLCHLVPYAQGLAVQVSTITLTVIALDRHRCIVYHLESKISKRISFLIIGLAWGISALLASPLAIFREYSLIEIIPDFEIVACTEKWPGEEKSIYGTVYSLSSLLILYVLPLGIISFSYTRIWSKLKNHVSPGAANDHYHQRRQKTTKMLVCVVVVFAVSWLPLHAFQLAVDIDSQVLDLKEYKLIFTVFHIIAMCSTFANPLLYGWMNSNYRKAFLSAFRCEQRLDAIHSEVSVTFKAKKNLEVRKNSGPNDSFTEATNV

B1: Compound 170 (peptide)
peptide: YXEGTFTSDYSIXLEKQAQXAFVQWLIKGGPSSGASLRHYYNWLTRQRY
modifications: Aib at 2, 13, 20; K28 side chain: C18DA-gGlu-gGlu-gGlu-gGlu-gGlu-gGlu-eLys; C-terminal NH2
B2: Compound 172 (peptide)
peptide: YXEGTFTSDLSIXLEKQAQXAFVEWLIKGGPSSGASLRHYYNWLTRQRY
modifications: Aib at 2, 13, 20; K28 side chain: C20DA-gGlu-gGlu-gGlu-gGlu-gGlu-gGlu-eLys; C-terminal NH2

How the values were obtained:
[1] = target: T5, hGLP1R (Homo sapiens, UniProt P43220); experiment: hGLP1R CreLuc reporter gene assay in 0.5% and 100% plasma; assay type: cell-based; conditions: CreLuc reporter gene assay
T5 construct: expressed in transfected cells; host or cells: HEK-293 cells carrying a CRE-luciferase reporter gene
Outline: (§1)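 Agonist EC50s came from 8-concentration curves over four decades, fitted by non-linear variable-slope regression of CRE-driven luciferase luminescence. Cells were exposed 4 h at 37 °C, in buffer with 0.5% human plasma or in 100% plasma; GIPR was expressed in CHO cells, GLP-1R and NPY2R in HEK cells.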

[2] = target: T1, hNPY2R; experiment: hNPY2R CreLuc reporter gene assay in 0.5% and 100% plasma; assay type: cell-based; conditions: CreLuc reporter gene assay
Outline: as §1

[3] = target: T2, hGIPR; experiment: hGIPR CreLuc reporter gene assay in 0.5% and 100% plasma; assay type: cell-based; conditions: CreLuc reporter gene assay
Outline: as §1

[4] = target: T3, human GIP receptor; experiment: cell-based or functional assay
[5] = target: T4, human neuropeptide Y2 receptor; experiment: cell-based or functional assay
[6] = target: human GLP-1 receptor (human, UniProt P43220 24-463); experiment: cell-based or functional assay
[7] = 0.5% human plasma, read-out: hGLP1R 0.5% hP
[8] = 0.5% human plasma, read-out: hGIPR 0.5% hP
[9] = 100% human plasma, read-out: hGIPR 100% hP

T5 sequence (P43220 24-463): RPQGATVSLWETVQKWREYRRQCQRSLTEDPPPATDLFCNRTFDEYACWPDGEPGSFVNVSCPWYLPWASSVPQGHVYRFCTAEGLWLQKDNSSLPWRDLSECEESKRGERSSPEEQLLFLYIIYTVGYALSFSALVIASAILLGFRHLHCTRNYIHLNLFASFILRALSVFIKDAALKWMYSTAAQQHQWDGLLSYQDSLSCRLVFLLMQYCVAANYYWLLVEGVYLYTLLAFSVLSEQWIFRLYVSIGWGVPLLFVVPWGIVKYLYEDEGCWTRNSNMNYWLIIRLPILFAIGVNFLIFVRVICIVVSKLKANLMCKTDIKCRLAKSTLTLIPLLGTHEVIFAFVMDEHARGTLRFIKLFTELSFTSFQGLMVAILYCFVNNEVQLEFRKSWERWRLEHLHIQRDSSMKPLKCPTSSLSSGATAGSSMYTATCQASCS

| Molecule | EC50 [1, 7] [nM] | EC50 ([1]; 100% human plasma, read-out: hGLP1R 100% hP) [nM] | EC50 ([2]; 100% human plasma, read-out: hNPY2R 100% hP) [nM] | EC50 [3, 8] [nM] | EC50 [3, 9] [nM] | EC50 ([2]; 0.5% human plasma, read-out: hNPY2R 0.5% hP) [nM] | EC50 CreLuc hGIPR 0.5% hP [4] [nM] | EC50 CreLuc hGIPR 100% hP [4] [nM] | EC50 CreLuc hNPY2R 0.5% hP [5] [nM] | EC50 CreLuc hNPY2R 100% hP [5] [nM] | EC50 CreLuc hGLP1R 0.5% hP [6] [nM] | EC50 CreLuc hGLP1R 100% hP [6] [nM] |
| --- | --- | --- | --- | --- | --- | --- | --- | --- | --- | --- | --- | --- |
| H-Y[Aib]EGTFTSDYSI[Aib]LEKQAQ[Aib]AFVEWLIK([εLys-γGlu-γGlu-γGlu-γGlu-γGlu-γGlu-C20 diacid])GGPSSGQS[Aib]RHYYNWLTRQRY-NH2 [Compound 44, Y-Aib-E-G-T-F-T-S-D-Y-S-I-Aib-L-E-K-Q-A-Q-Aib-A-F-V-E-W-L-I-K(1,3)-G-G-P-S-S-G-Q-S-Aib-R-H-Y-Y-N-W-L-T-R-Q-R-Y-NH2.C20DA-gGlu-gGlu-gGlu-gGlu-gGlu-gGlu-eLys(1,2)] | 0.07 | 2.12 | 24.5 | 0.05 | 1.14 | – | – | – | – | – | – | – |
| Y[Aib]EGTFTSDYSI[Aib]LEKQAQ[Aib]AFVEWLIK([εLys-γGlu-γGlu-γGlu-γGlu-γGlu-C20 diacid])GGPESPASLRHYYNWLTRQRY-NH2 [Compound 70, Y-Aib-E-G-T-F-T-S-D-Y-S-I-Aib-L-E-K-Q-A-Q-Aib-A-F-V-E-W-L-I-K(1,3)-GGPESPASLRHYYNWLTRQRY-NH2.C20DA-gGlu-gGlu-gGlu-gGlu-gGlu-eLys(1,2)] | 0.3 | – | – | 0.28 | 2.62 | 16.2 | – | – | – | – | – | – |
| Y[Aib]EGTFTSDYSI[Aib]LEKQAQ[Aib]EFVEWLIK([AEEA-AEEA-γGlu-γGlu-γGlu-C18 diacid])GGPSSGASLRHYYNWLTRQRY-NH2 [Compound 171] | – | – | – | – | – | – | 0.2 | 0.83 | 7.51 | 30.4 | 0.27 | 4.17 |
| Y[Aib]EGTFTSDYSI[Aib]LEKQAQ[Aib]AFVQWLIK([εLys-γGlu-γGlu-γGlu-γGlu-γGlu-C20 diacid])GGPSEPASLRHYYNWLTRQRY-NH2 [Compound 169] | – | – | – | – | – | – | 0.26 | 3.15 | 10.3 | 50.3 | 0.13 | 7.3 |
| B1 | – | – | – | – | – | – | 0.24 | 1.15 | 19.2 | 33.2 | 0.09 | 0.98 |
| B2 | – | – | – | – | – | – | 0.21 | 1.83 | 20.2 | 86.1 | 0.07 | 2 |

From patent US20240247080A1, “GLP1/GIP/NPY2 RECEPTOR TRIPLE AGONISTS” (Boehringer Ingelheim International GmbH, priority 2022, published 2024)
